# Assay results from the RNAGym collection of RNA variant scans (doi:10.1093/molbev/msab373).
# B1: Azoarcus group I ribozyme (parent)
# chain: GUGCCUUGCGCCGGGAAACCACGCAAGGGAUGGUGUCAAAUUCGGCGAAACCUAAGCGCCCGCCCGGGCGUAUGGCAACGCCGAGCCAAGCUUCGGCGCCUGCGCCGAUGAAGGUGUAGAGACUAGACGGCACCCACCUAAGGCAAACGCUAUGGUGAAGGCAUAGUCCAGGGAGUGGCGAAAGUCACACAAACCGG
# Variants of: B1
# Test: reverse-splicing fitness (ratio to wild type); higher = more active; in vitro selection; Mg2+ level not given
# Procedure, shortened: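 An in vitro group I ribozyme library with randomized positions was T7-transcribed and gel-purified. In triplicate, 10 pmol RNA in EPPS pH 7.5 was reacted with 50 pmoles of a 30-nt RNA substrate for 1 h at 37 °C across several added MgCl2 levels (1–48 mM), then stopped with EDTA. Products were reverse transcribed from a substrate-complementary primer, PCR-amplified and sequenced (HiSeq 4000). Fitness is a variant's read proportion after selection over that before, normalised to wild type.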
row,Variant,reverse-splicing fitness
1,GUGCCUUGCGCCGGGAAACCACGCAAGGGAUGGUGUCAAAUUCGGCGAAACCUAAGCGCCCGCCCGGGCGUAUGGCAACGCGGAGCCAAGCUUCGGCGCCUGCGCCGAUGGAGGUGUAGAGACUAGACGGCACCCACCUAAGGCAAACGAUAUGGUGAAGGCAUAGUCAAGGGAGGGGCGAAAGUCACACAAACCGG [C82G A111G C150A C169A U176G],0.00701
2,GUGCCUUGCGCCGGGAAACCACGCAAGGGAUGGUGUCAAAUUCGGCGAAACCUAAGCGCCCGCCCGGGCGUAUGGCAACGCGGAGCCAAGCUUCGGCGCCUGCGCCGAUGGAGGUGUAGAGACUAGACGGCACCCACCUAAGGCAAACGAUAUGGUGAAGGCAUAGUCAAGGGAGAGGCGAAAGUCACACAAACCGG [C82G A111G C150A C169A U176A],0.0211
3,GUGCCUUGCGCCGGGAAACCACGCAAGGGAUGGUGUCAAAUUCGGCGAAACCUAAGCGCCCGCCCGGGCGUAUGGCAACGCGGAGCCAAGCUUCGGCGCCUGCGCCGAUGGAGGUGUAGAGACUAGACGGCACCCACCUAAGGCAAACGAUAUGGUGAAGGCAUAGUCAAGGGAGCGGCGAAAGUCACACAAACCGG [C82G A111G C150A C169A U176C],0.0224
4,GUGCCUUGCGCCGGGAAACCACGCAAGGGAUGGUGUCAAAUUCGGCGAAACCUAAGCGCCCGCCCGGGCGUAUGGCAACGCGGAGCCAAGCUUCGGCGCCUGCGCCGAUGGAGGUGUAGAGACUAGACGGCACCCACCUAAGGCAAACGAUAUGGUGAAGGCAUAGUCGAGGGAGAGGCGAAAGUCACACAAACCGG [C82G A111G C150A C169G U176A],0.0217
5,GUGCCUUGCGCCGGGAAACCACGCAAGGGAUGGUGUCAAAUUCGGCGAAACCUAAGCGCCCGCCCGGGCGUAUGGCAACGCGGAGCCAAGCUUCGGCGCCUGCGCCGAUGGAGGUGUAGAGACUAGACGGCACCCACCUAAGGCAAACGAUAUGGUGAAGGCAUAGUCGAGGGAGGGGCGAAAGUCACACAAACCGG [C82G A111G C150A C169G U176G],0.00751
6,GUGCCUUGCGCCGGGAAACCACGCAAGGGAUGGUGUCAAAUUCGGCGAAACCUAAGCGCCCGCCCGGGCGUAUGGCAACGCGGAGCCAAGCUUCGGCGCCUGCGCCGAUGGAGGUGUAGAGACUAGACGGCACCCACCUAAGGCAAACGAUAUGGUGAAGGCAUAGUCGAGGGAGCGGCGAAAGUCACACAAACCGG [C82G A111G C150A C169G U176C],0.0228
7,GUGCCUUGCGCCGGGAAACCACGCAAGGGAUGGUGUCAAAUUCGGCGAAACCUAAGCGCCCGCCCGGGCGUAUGGCAACGCGGAGCCAAGCUUCGGCGCCUGCGCCGAUGGAGGUGUAGAGACUAGACGGCACCCACCUAAGGCAAACGAUAUGGUGAAGGCAUAGUCCAGGGAGUGGCGAAAGUCACACAAACCGG [C82G A111G C150A],0.0393
8,GUGCCUUGCGCCGGGAAACCACGCAAGGGAUGGUGUCAAAUUCGGCGAAACCUAAGCGCCCGCCCGGGCGUAUGGCAACGCGGAGCCAAGCUUCGGCGCCUGCGCCGAUGGAGGUGUAGAGACUAGACGGCACCCACCUAAGGCAAACGAUAUGGUGAAGGCAUAGUCUAGGGAGGGGCGAAAGUCACACAAACCGG [C82G A111G C150A C169U U176G],0.00706
9,GUGCCUUGCGCCGGGAAACCACGCAAGGGAUGGUGUCAAAUUCGGCGAAACCUAAGCGCCCGCCCGGGCGUAUGGCAACGCGGAGCCAAGCUUCGGCGCCUGCGCCGAUGGAGGUGUAGAGACUAGACGGCACCCACCUAAGGCAAACGAUAUGGUGAAGGCAUAGUCUAGGGAGCGGCGAAAGUCACACAAACCGG [C82G A111G C150A C169U U176C],0.0146
10,GUGCCUUGCGCCGGGAAACCACGCAAGGGAUGGUGUCAAAUUCGGCGAAACCUAAGCGCCCGCCCGGGCGUAUGGCAACGCGGAGCCAAGCUUCGGCGCCUGCGCCGAUGGAGGUGUAGAGACUAGACGGCACCCACCUAAGGCAAACGAUAUGGUGAAGGCAUAGUCUAGGGAGAGGCGAAAGUCACACAAACCGG [C82G A111G C150A C169U U176A],0.0165
11,GUGCCUUGCGCCGGGAAACCACGCAAGGGAUGGUGUCAAAUUCGGCGAAACCUAAGCGCCCGCCCGGGCGUAUGGCAACGCGGAGCCAAGCUUCGGCGCCUGCGCCGAUGGAGGUGUAGAGACUAGACGGCACCCACCUAAGGCAAACGAUAUGGUGAAGGCAUAGUCAAGGGAGUGGCGAAAGUCACACAAACCGG [C82G A111G C150A C169A],0.0122
12,GUGCCUUGCGCCGGGAAACCACGCAAGGGAUGGUGUCAAAUUCGGCGAAACCUAAGCGCCCGCCCGGGCGUAUGGCAACGCGGAGCCAAGCUUCGGCGCCUGCGCCGAUGGAGGUGUAGAGACUAGACGGCACCCACCUAAGGCAAACGAUAUGGUGAAGGCAUAGUCGAGGGAGUGGCGAAAGUCACACAAACCGG [C82G A111G C150A C169G],0.0109
13,GUGCCUUGCGCCGGGAAACCACGCAAGGGAUGGUGUCAAAUUCGGCGAAACCUAAGCGCCCGCCCGGGCGUAUGGCAACGCGGAGCCAAGCUUCGGCGCCUGCGCCGAUGGAGGUGUAGAGACUAGACGGCACCCACCUAAGGCAAACGAUAUGGUGAAGGCAUAGUCUAGGGAGUGGCGAAAGUCACACAAACCGG [C82G A111G C150A C169U],0.0115
14,GUGCCUUGCGCCGGGAAACCACGCAAGGGAUGGUGUCAAAUUCGGCGAAACCUAAGCGCCCGCCCGGGCGUAUGGCAACGCGGAGCCAAGCUUCGGCGCCUGCGCCGAUGGAGGUGUAGAGACUAGACGGCACCCACCUAAGGCAAACGAUAUGGUGAAGGCAUAGUCCAGGGAGGGGCGAAAGUCACACAAACCGG [C82G A111G C150A U176G],0.0174
15,GUGCCUUGCGCCGGGAAACCACGCAAGGGAUGGUGUCAAAUUCGGCGAAACCUAAGCGCCCGCCCGGGCGUAUGGCAACGCGGAGCCAAGCUUCGGCGCCUGCGCCGAUGGAGGUGUAGAGACUAGACGGCACCCACCUAAGGCAAACGAUAUGGUGAAGGCAUAGUCCAGGGAGCGGCGAAAGUCACACAAACCGG [C82G A111G C150A U176C],0.0385
